The results in this text go back to IntAct's records for PubMed 31515488.

The labels stand for the following.
B1: Protein sprouty homolog 1 (Homo sapiens), O43609 (parent)
chain: MDPQNQHGSGSSLVVIQQPSLDSRQRLDYEREIQPTAILSLDQIKAIRGSNEYTEGPSVVKRPAPRTAPRQEKHERTHEIIPINVNNNYEHRHTSHLGHAVLPSNARGPILSRSTSTGSAASSGSNSSASSEQGLLGRSPPTRPVPGHRSERAIRTQPKQLIVDDLKGSLKEDLTQHKFICEQCGKCKCGECTAPRTLPSCLACNRQCLCSAESMVEYGTCMCLVKGIFYHCSNDDEGDSYSDNPCSCSQSHCCSRYLCMGAMSLFLPCLLCYPPAKGCLKLCRRCYDWIHRPGCRCKNSNTVYCKLESCPSRGQGKPS
B2: Ribosome quality control complex subunit TCF25 (Homo sapiens), Q9BQ70 (parent)
chain: MSRRALRRLRGEQRGQEPLGPGALHFDLRDDDDAEEEGPKRELGVRRPGGAGKEGVRVNNRFELINIDDLEDDPVVNGERSGCALTDAVAPGNKGRGQRGNTESKTDGDDTETVPSEQSHASGKLRKKKKKQKNKKSSTGEASENGLEDIDRILERIEDSTGLNRPGPAPLSSRKHVLYVEHRHLNPDTELKRYFGARAILGEQRPRQRQRVYPKCTWLTTPKSTWPRYSKPGLSMRLLESKKGLSFFAFEHSEEYQQAQHKFLVAVESMEPNNIVVLLQTSPYHVDSLLQLSDACRFQEDQEMARDLVERALYSMECAFHPLFSLTSGACRLDYRRPENRSFYLALYKQMSFLEKRGCPRTALEYCKLILSLEPDEDPLCMLLLIDHLALRARNYEYLIRLFQEWEAHRNLSQLPNFAFSVPLAYFLLSQQTDLPECEQSSARQKASLLIQQALTMFPGVLLPLLESCSVRPDASVSSHRFFGPNAEISQPPALSQLVNLYLGRSHFLWKEPATMSWLEENVHEVLQAVDAGDPAVEACENRRKVLYQRAPRNIHRHVILSEIKEAVAALPPDVTTQSVMGFDPLPPSDTIYSYVRPERLSPISHGNTIALFFRSLLPNYTMEGERPEEGVAGGLNRNQGLNRLMLAVRDMMANFHLNDLEAPHEDDAEGEGEWD
partner: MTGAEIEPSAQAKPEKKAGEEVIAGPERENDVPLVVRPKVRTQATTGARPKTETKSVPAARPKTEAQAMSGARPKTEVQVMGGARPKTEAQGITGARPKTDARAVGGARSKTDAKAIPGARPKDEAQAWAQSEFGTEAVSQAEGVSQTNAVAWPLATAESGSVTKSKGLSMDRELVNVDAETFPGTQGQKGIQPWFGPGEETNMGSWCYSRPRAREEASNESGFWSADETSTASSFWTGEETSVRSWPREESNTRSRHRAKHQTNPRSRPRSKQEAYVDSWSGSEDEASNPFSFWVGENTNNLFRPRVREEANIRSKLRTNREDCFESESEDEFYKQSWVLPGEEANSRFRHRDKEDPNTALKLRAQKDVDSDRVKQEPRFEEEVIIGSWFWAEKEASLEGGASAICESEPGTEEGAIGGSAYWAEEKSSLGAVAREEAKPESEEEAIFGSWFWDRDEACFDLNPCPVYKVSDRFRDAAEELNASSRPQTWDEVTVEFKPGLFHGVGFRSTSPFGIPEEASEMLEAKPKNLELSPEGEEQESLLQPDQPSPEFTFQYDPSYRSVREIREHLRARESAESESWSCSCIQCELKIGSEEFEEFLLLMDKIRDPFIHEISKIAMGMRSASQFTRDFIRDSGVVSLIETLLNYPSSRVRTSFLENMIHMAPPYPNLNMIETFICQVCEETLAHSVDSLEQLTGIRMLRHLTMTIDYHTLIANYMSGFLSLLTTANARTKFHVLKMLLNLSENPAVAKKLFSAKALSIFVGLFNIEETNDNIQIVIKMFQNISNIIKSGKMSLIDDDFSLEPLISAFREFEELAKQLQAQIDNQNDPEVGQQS
B3: Protein FAM9B (Homo sapiens), Q8IZU0 (parent)
chain: MAAWGKKHAGKDPVRDECEERNRFTETREEDVTDEHGEREPFAETDEHTGANTKKPEDTAEDLTAKRKRMKMDKTCSKTKNKSKHALRKKQLKRQKRDYIHSLKLLNVLEEYITDEQKEEEEEEGEEEELIRIFQEQQKKWQQYRSVRRERLKEMKLLRDQFVKALEDFEDLCDRVFSDEDSELDN
partner: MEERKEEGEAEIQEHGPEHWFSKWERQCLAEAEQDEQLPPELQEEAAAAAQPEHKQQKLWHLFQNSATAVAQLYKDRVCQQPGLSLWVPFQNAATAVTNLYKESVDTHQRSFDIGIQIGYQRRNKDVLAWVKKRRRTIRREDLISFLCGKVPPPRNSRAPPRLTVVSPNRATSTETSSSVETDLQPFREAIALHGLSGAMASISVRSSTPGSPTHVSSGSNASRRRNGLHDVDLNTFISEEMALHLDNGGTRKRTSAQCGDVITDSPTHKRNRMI

In assay [1] the parent is B1. The settings on record: with nt2na_human NOTCH2NLA.
Variants of B1 are the subject of the assay “otx1_human OTX1, P32242”. The settings on record: with otx1_human OTX1, P32242.
Chain of otx1_human OTX1, P32242 (P32242 whole entry): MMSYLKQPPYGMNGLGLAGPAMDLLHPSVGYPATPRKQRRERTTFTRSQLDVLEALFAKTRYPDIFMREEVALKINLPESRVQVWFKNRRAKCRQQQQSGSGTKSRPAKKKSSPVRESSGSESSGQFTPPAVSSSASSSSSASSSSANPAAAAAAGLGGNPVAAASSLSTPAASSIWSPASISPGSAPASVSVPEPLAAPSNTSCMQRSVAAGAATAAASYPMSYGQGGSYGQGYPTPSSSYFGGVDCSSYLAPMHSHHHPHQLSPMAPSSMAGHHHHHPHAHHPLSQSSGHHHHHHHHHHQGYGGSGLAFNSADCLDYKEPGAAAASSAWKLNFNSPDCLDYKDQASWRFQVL
Assay [2] covers variants of B1. Conditions: with meox2_human MEOX2, P50222.
Chain of meox2_human MEOX2, P50222 (P50222 whole entry): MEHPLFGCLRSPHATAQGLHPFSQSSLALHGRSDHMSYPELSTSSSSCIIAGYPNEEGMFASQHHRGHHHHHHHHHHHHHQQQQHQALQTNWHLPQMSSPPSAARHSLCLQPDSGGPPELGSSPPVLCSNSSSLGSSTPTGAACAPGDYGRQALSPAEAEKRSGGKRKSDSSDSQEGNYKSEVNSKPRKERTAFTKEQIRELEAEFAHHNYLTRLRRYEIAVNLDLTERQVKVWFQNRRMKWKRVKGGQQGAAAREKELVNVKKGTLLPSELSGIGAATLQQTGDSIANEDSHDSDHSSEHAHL
Variants of B1 are the subject of assay [3]. The settings on record: with kr101_human KRTAP10-1, P60331.
Chain of kr101_human KRTAP10-1, P60331 (P60331 whole entry): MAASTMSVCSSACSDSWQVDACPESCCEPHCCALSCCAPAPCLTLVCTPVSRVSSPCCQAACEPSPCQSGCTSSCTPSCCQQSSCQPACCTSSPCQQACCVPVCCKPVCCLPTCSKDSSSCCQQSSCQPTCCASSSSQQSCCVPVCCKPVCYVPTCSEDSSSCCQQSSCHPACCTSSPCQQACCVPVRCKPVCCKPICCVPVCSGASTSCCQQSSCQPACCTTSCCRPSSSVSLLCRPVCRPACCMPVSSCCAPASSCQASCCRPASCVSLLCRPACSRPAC
Variants of B2 are the subject of assay [4]. Conditions: with gasp2_human GPRASP2, Q96D09.
The variants in assay [5] derive from B3. Conditions: with hapr1_human HAPSTR1, Q14CZ0.

Consider MDPQNQHGSGSSLVVIQQPSLDSRQRLDYEREIQPTAILSLDQIKAIRGSNEYTEGPSVVKRPAPRTAPRQEKHERTHEIIPINVNNNYEHRHTSHLGHAVLPSNARGPILSRSTSTGSAASSGSNSSASSEQGLLGRSPPTRPVPGHRSERAIRTQPKQLIVDDLKGSLKEDLTQHKFICEQCGKCKCGECTAPRTLPSCLACNRQCLCSAESMVEYGTCMCLVKGIFYHCSNDDEGDSYSDNPCSCSQSHCCSRYLCMGAMSLFLPCLLCYPPAKGCLKLCRRCYDWIHRPGCKCKNSNTVYCKLESCPSRGQGKPS [R296K], for which the “effect of a mutation on the interaction” value is given as “with no effect” in assay [1]; “with no effect” with otx1_human OTX1, P32242; “with no effect” in assay [2]; “with no effect” in assay [3].

As to MDPQNQHGSGSSLVVIQQPSLDSRQRLDYEREIQPTTILSLDQIKAIRGSNEYTEGPSVVKRPAPRTAPRQEKHERTHEIIPINVNNNYEHRHTSHLGHAVLPSNARGPILSRSTSTGSAASSGSNSSASSEQGLLGRSPPTRPVPGHRSERAIRTQPKQLIVDDLKGSLKEDLTQHKFICEQCGKCKCGECTAPRTLPSCLACNRQCLCSAESMVEYGTCMCLVKGIFYHCSNDDEGDSYSDNPCSCSQSHCCSRYLCMGAMSLFLPCLLCYPPAKGCLKLCRRCYDWIHRPGCRCKNSNTVYCKLESCPSRGQGKPS [A37T], the “effect of a mutation on the interaction” value in assay [1] is recorded as “with no effect”; in the assay with otx1_human OTX1, P32242, “with no effect”; in assay [2], “with no effect”; in assay [3] it was “with no effect”.

For MDPQNQHGSGSSLVVIQQPSLDSHQRLDYEREIQPTAILSLDQIKAIRGSNEYTEGPSVVKRPAPRTAPRQEKHERTHEIIPINVNNNYEHRHTSHLGHAVLPSNARGPILSRSTSTGSAASSGSNSSASSEQGLLGRSPPTRPVPGHRSERAIRTQPKQLIVDDLKGSLKEDLTQHKFICEQCGKCKCGECTAPRTLPSCLACNRQCLCSAESMVEYGTCMCLVKGIFYHCSNDDEGDSYSDNPCSCSQSHCCSRYLCMGAMSLFLPCLLCYPPAKGCLKLCRRCYDWIHRPGCRCKNSNTVYCKLESCPSRGQGKPS [R24H], the “effect of a mutation on the interaction” value in assay [1] was “with no effect”; with otx1_human OTX1, P32242 it was “with no effect”; in assay [2], “with no effect”; in assay [3] it was “with no effect”.

Take V526A: in assay [4], the “effect of a mutation on the interaction” value was “with no effect”.

As for R23H, the “effect of a mutation on the interaction” value in assay [5] is “with no effect”.
